The results in this text go back to PMC5505988.

For the assay, the target named is HLA-A*11:01 heavy chain with β2-microglobulin (human).

As to “SSCS, N-terminal 4-mer of EBV LMP2(340–349) (peptide)”, the melting temperature (Tm) of the pHLA complex refolded with SSCS + SCPLSK (m9 + m10), thermofluor thermal shift assay was found to be 50.3 °C.
Take “SSCSS, N-terminal 5-mer of EBV LMP2(340–349) (peptide)”: the melting temperature (Tm) of the pHLA complex refolded with SSCSS + SCPLSK (m11 + m10), thermofluor thermal shift assay amounted to 49.7 °C.
Consider “SSCSSC, EBV LMP2(340–345), N-terminal 6-mer (peptide)”, for which the melting temperature (Tm) of the pHLA complex refolded with SSCSSC + SCPLSK (m13 + m10), thermofluor thermal shift assay was 48.7 °C and the melting temperature (Tm) of the pHLA complex refolded with SSCSSC + SSCPLSK (m13 + m5), thermofluor thermal shift assay turned out to be 49.4 °C.
